Reference: paper PMC2588538, “Structure of Reovirus σ1 in Complex with Its Receptor Junctional Adhesion Molecule-A” (PLoS Pathogens, 2008)

B2: reovirus type 3 Dearing (T3D) σ1 fragment comprising the head domain and one β-spiral of the tail (σ1H; residues 293–455) (domain or fragment)
chain: GSSPNLRYPIADVSGGIGMSPNYRFRQSMWIGIVSYSGSGLNWRVQVNSDIFIVDDYIHICLPAFDGFSIADGGDLSLNFVTGLLPPLLTGDTEPAFHNDVVTYGAQTVAIGLSSGGAPQYMSKNLWVEQWQDGVLRLRVEGGGSITHSNSKWPAMTVSYPRSFT
notes: two non-native residues left at the N-terminus after removal of GST, numbered Gly291 and Ser292; reovirus attachment protein σ1, strain type 3 Dearing (T3D), residues 293-455 (head domain and one β-spiral of the tail); Trimer in the crystal; also called T3D σ1 head domain; not shown: GST, N-terminal, cleaved

Assays:
CAR (Homo sapiens) = CAR (Homo sapiens) (UniProt P78310); details: cited from earlier work
[1] = target: B2; experiment: crystal structure; σ1H-D1 complex, 3.4 Å, space group P2_(1)2_(1)2; crystals from 0.1 M CHES pH 9.5, polyethylene glycol 3350, 20°C; two σ1H trimers each with three D1 monomers in the asymmetric unit; details: both partners purified
[2] = target: the molecule itself; experiment: AUC; sedimentation velocity, 50 krpm, 25°C, 20 mM Tris pH 7.5, 100 mM NaCl; five concentrations 0.06 to 1.31 mg/mL; interference optics
[3] = target: the molecule itself; experiment: AUC; sedimentation equilibrium, 17.5/25/35 krpm, 25°C, 20 mM Tris pH 7.5, 100 mM NaCl; four concentrations 0.16 to 1.6 mg/mL; monomer-dimer model with variable amounts of tetramer; dimer to monomers
[4] = target: the molecule itself; experiment: crystal structure; σ1H-D1 complex, 3.4 Å, space group P2_(1)2_(1)2; crystals from 0.1 M CHES pH 9.5, polyethylene glycol 3350, 20°C; two σ1H trimers each with three D1 monomers in the asymmetric unit

For CAR (from UniProt P78310), the Kd (CAR (Homo sapiens)) is listed as 16 µM.

B1: D1 domain of human junctional adhesion molecule-A (hJAM-A D1; residues 28–129) (domain or fragment)
chain: GSSVTVHSSEPEVRIPENNPVKLSCAYSGFSSPRVEWKFDQGDTTRLVCYNNKITASYEDRVTFLPTGITFKSVTREDTGTYTCMVSEEGGNSYGEVKVKLIVL
notes: two non-native residues left at the N-terminus after removal of GST, numbered Gly26 and Ser27; human junctional adhesion molecule-A, membrane-distal D1 domain, residues 28-129; Homodimer in solution at neutral pH; also called wt D1; source: E. coli BL21 (DE3) pLysS, purified (GSTrap, on-column thrombin cleavage, SEC); not shown: GST, N-terminal, cleaved
With B1 the binding result [1] was “binds”, the “stoichiometry N” value [2] was 2 and the Kd [3] was 11 µM.

For B2, the “stoichiometry N” value [4] was 3.
